Patent CN111217911A (DONGGUAN PENGZHI BIO TECH CO LTD, dated 2020)

Molecular target: T1, 人胃蛋白酶原II HPGII (fitzgerald, 30R-AP039) (human, UniProt P20142 17-388)
T1 construct: Bought antigen; also called PGⅡ; PGC
T1 sequence (looked up): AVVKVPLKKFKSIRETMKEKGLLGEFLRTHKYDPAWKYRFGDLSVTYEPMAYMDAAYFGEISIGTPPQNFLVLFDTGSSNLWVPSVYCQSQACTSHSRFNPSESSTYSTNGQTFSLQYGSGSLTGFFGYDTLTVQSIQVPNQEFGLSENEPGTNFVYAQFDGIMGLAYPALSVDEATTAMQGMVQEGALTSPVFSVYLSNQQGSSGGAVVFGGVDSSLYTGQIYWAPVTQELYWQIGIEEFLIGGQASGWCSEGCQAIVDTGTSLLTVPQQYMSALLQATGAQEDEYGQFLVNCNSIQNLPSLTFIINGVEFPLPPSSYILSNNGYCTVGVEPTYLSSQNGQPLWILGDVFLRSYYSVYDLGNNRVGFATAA
Assay: BLI, AMC sensor, antibody immobilised, HPGII in solution

Kd: 5.15 nM
koff: 0.00181 s⁻¹
kon: 351000 M⁻¹ s⁻¹
B1: Anti-HPG II 11C2 重组抗体 (WT) (antibody, V domains shown)
VH: QIQLVQSGPELKKPGETVKISCKASGYSFTQHGMNWVKQAPGKGLKWMGWINSFTAQPTFADDFRGRFAFSLETSASTAYLQINNLKNEDMATYFCARRGENYIYYYAMDYWGQGTSVTVSS
VL: DVVVTQTPLSLPVSFGDQVSISCRSNQSIAQSYGNTYLSWYLHKPGQSPQLLIYGLSQRFSGVPDRFSGSGSGTDFTLKISTIKPEDLGMYYCLNGSHQPWTFGGGTKLEIK
